Measured values as given in article PMC6303327 (2018).

Molecular target: Rfa3 DNA-binding domain-E (DBD-E), OB domain, residues 1-99 (S. cerevisiae, UniProt P26755 1-99, fluorescent label NT-495 (Monolith NT protein-labeling Kit Blue-Cys) on free cysteine residues)
Experiment: MST

Chain of Rfa3 DNA-binding domain-E (DBD-E), OB domain, residues 1-99 (P26755 1-99): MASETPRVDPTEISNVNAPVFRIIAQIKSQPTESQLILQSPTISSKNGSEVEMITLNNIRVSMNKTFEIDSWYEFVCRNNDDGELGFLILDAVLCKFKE

B1: Rfa1 DBD-A (residues 178-294) phosphomimetic S178D (domain or fragment)
chain: DQKTRPIFAIEQLSPYQNVWTIKARVSYKGEIKTWHNQRGDGKLFNVNFLDTSGEIRATAFNDFATKFNEILQEGKVYYVSKAKLQPAKPQFTNLTHPYELNLDRDTVIEECFDESN
- EC50: 36 µM
